Where no end group is shown, it is not given here. [ ]: non-standard residue; d: D form. TrpNAc = Trp with an acetic acid moiety; Hyp = O=C(O)[C@@H]1C[C@@H](O)CN1; NMeNle = CCCC[C@H](NC)C(=O)O; NMeA = CN[C@@H](C)C(=O)O; Dab = NCC[C@H](N)C(=O)O; Scc = not defined here
Biological target: T1, PD-L1 of the commercial HTRF PD-1/PD-L1 interaction assay
T1 construct: PD-L1 as supplied in the Cisbio HTRF kit
Test: AlphaScreen or HTRF; commercial HTRF PD-1/PD-L1 interaction assay (Cisbio, France); pAC65 varied; data fitted with Hill's model
Details: both partners purified

IC50: 1.8 ± 0.16 nM
B1: pAC65 macrocyclic peptide (peptide)
chain: Y[NMeA]NP[Ala‑NH2]L[Hyp]W[Dab][TrpNAc][NMeNle][NMeNle]L[Scc]G-NH2
modifications: bridge (positions not given here); not fully specified (bridges); reading uncertain; also: macrocyclic ring, places not given here
